The values that follow are results of earlier work, collected in publication PMC13051815.

pKd: −log10 of the molar value. Bounds are passed on as bounds.

Series [1] has as its target Bim BH3 peptide 86-111 (Homo sapiens) (UniProt O43521). Nature of the series: ITC. On the technique in general: In ITC the heat of successive injections is recorded.
For series [2] the target is unchanged. The series can be described thus: fluorescence polarization. (Polarisation of emitted light reports the rotation of a fluorescent probe.)

Sequence of UniProt O43521 (O43521 86-111): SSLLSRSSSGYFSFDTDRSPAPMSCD

Broadly, the pKd is the negative decadic logarithm of the Kd, by convention in mol/L. Consider Hsp70 NBD (from UniProt P0DMV8), for which the pKd was 6.40 in series [1] and < 4.52 in series [2].
